Test results as given in patent US20120219559A1 (Johns Hopkins, published 2012).

T1: PD-1Ig (Mus musculus, UniProt Q02242)
T1 construct: Ig fusion protein purchased from R&D systems; also called mouse PD-1Ig fusion protein
T1 sequence (fusion protein, looked up): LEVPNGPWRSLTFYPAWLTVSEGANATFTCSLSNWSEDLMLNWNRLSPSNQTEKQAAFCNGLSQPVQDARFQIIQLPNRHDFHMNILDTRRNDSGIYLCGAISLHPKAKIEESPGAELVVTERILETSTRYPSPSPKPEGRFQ

T2: B7-DCIg (Mus musculus, UniProt Q9WUL5)
T2 construct: Ig fusion protein purchased from R&D systems; also called mouse B7-DCIg fusion protein
T2 sequence (fusion protein, looked up): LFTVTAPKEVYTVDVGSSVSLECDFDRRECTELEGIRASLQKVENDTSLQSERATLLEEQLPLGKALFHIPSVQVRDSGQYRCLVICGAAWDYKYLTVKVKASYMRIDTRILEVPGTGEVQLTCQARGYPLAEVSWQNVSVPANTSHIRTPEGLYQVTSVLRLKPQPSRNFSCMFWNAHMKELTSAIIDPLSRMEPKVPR

T3: B7-H2Ig (Mus musculus, UniProt Q9JHJ8)
T3 construct: Ig fusion protein purchased from R&D systems; also called mouse B7-H2Ig fusion protein
T3 sequence (fusion protein, looked up): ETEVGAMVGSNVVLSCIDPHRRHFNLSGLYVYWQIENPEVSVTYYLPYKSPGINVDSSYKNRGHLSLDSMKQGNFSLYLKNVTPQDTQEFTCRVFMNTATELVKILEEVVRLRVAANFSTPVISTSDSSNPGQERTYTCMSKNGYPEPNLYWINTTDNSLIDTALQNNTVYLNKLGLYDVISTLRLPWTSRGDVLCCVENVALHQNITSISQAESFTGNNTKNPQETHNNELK

T4: mouse CD28Ig fusion protein (mouse, UniProt P31041 20-149)
T4 construct: Bought from R&D Systems; Ig (Fc) part not given
T4 sequence (looked up): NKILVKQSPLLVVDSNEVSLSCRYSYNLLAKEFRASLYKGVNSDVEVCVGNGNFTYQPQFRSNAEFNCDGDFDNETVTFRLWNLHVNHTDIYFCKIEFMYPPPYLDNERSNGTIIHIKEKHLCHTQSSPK

T5: ICOSIg (Mus musculus, UniProt Q9WVS0)
T5 construct: Ig fusion protein purchased from R&D systems; also called mouse ICOSIg fusion protein
T5 sequence (fusion protein, looked up): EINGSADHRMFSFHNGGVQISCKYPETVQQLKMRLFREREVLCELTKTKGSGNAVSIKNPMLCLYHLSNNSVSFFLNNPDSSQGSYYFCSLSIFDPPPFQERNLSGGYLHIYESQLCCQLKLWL


How the values were obtained:
[1] = molecular target: human B7-H2, full length, expressed on cells (B7-H2+293T cells) (human) (UniProt O75144); assay: cell-based or functional assay
PD-1Ig = molecular target: T1, PD-1Ig; assay: CDS well image, 293T cells transfected with the mouse gene, stained with the mouse fusion protein
B7-DCIg = molecular target: T2, B7-DCIg; assay: as above
B7-H1Ig = molecular target: T6, B7-H1Ig (Mus musculus, UniProt Q9EP73); assay: as above
T6 construct: Ig fusion protein purchased from R&D systems; also called mouse B7-H1Ig fusion protein
T6 sequence (Q9EP73 19-238 limits assumed): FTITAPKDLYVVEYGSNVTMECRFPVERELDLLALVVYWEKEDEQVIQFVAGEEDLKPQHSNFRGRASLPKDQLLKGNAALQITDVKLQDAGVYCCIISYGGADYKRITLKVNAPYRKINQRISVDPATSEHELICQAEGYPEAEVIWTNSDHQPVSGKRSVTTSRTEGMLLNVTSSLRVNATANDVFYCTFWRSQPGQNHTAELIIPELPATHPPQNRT

B7-H2Ig = molecular target: T3, B7-H2Ig; assay: as above
[2] = molecular target: T4, mouse CD28Ig fusion protein; assay: as above
ICOSIg = molecular target: T5, ICOSIg; assay: as above
[3] = molecular target: T7, mouse CTLA-4Ig fusion protein (mouse, UniProt P09793 36-162); assay: as above
T7 construct: Bought from R&D Systems; Ig (Fc) part not given

binding result (B7-H2Ig)	Molecule	tetanus toxoid-elicited IFNγ production of memory T cells; inhibition [1]	tetanus toxoid-elicited proliferation of memory T cells; inhibition [1]	binding result (PD-1Ig)	binding result (B7-DCIg)	binding result (B7-H1Ig)	binding result [2]	binding result (ICOSIg)	binding result [3]
–	mouse anti-human B7-H2 mAb 9F.8A4 (antibody)	> 90%	> 50%	–	–	–	–	–	–
no binding	B7-DC (ligand, Mus musculus, UniProt Q9WUL5 20-247, looked up) membrane protein: LFTVTAPKEVYTVDVGSSVSLECDFDRRECTELEGIRASLQKVENDTSLQSERATLLEEQLPLGKALFHIPSVQVRDSGQYRCLVICGAAWDYKYLTVKVKASYMRIDTRILEVPGTGEVQLTCQARGYPLAEVSWQNVSVPANTSHIRTPEGLYQVTSVLRLKPQPSRNFSCMFWNAHMKELTSAIIDPLSRMEPKVPRTWPLHVFIPACTIALIFLAIVIIQRKRI	–	–	–	–	–	–	–	–
no binding	B7-1 (ligand) VDEQLSKSVKDKVLLPCRYNSPHEDESEDRIYWQKHDKVVLSVIAGKLKVWPEYKNRTLYDNTTYSLIILGLVLSDRGTYSCVVQKKERGTYEVKHLALVKLSIKADFSTPNITESGNPSADTKRITCFASGGFPKPRFSWLENGRELPGINTTISQDPESELYTISSQLDFNTTRNHTIKCLIKYGDAHVSEDFTWEKPPEDPPDSKNTLVLFGAGFGAVITVVVIVVIIKCFCKHRSCFRRNEASRETNNSLTFGPEEALAEQTVFL	–	–	no binding	no binding	binds	binds	no binding	binds

Molecule	binding result (B7-H2Ig)	tetanus toxoid-elicited IFNγ production of memory T cells; inhibition [1]	tetanus toxoid-elicited proliferation of memory T cells; inhibition [1]	binding result (PD-1Ig)	binding result (B7-DCIg)	binding result (B7-H1Ig)	binding result [2]	binding result (ICOSIg)	binding result [3]
B7-2 (ligand) VSVETQAYFNGTAYLPCPFTKAQNISLSELVVFWQDQQKLVLYEHYLGTEKLDSVNAKYLGRTSFDRNNWTLRLHNVQIKDMGSYDCFIQKKPPTGSIILQQTLTELSVIANFSEPEIKLAQNVTGNSGINLTCTSKQGHPKPKKMYFLITNSTNEYGDNMQISQDNVTELFSISNSLSLSFPDGVWHMTVVCVLETESMKISSKPLNFTQEFPSPQTYWKEITASVTVALLLVMLLIIVCHKKPNQPSRPSNTASKLERDSNADRETINLKELEPQIASAKPNAE	no binding	–	–	no binding	no binding	no binding	binds	no binding	binds
